# B1: Low-density lipoprotein receptor-related protein 6 (Homo sapiens), O75581 (parent)
# chain: MGAVLRSLLACSFCVLLRAAPLLLYANRRDLRLVDATNGKENATIVVGGLEDAAAVDFVFSHGLIYWSDVSEEAIKRTEFNKTESVQNVVVSGLLSPDGLACDWLGEKLYWTDSETNRIEVSNLDGSLRKVLFWQELDQPRAIALDPSSGFMYWTDWGEVPKIERAGMDGSSRFIIINSEIYWPNGLTLDYEEQKLYWADAKLNFIHKSNLDGTNRQAVVKGSLPHPFALTLFEDILYWTDWSTHSILACNKYTGEGLREIHSDIFSPMDIHAFSQQRQPNATNPCGIDNGGCSHLCLMSPVKPFYQCACPTGVKLLENGKTCKDGATELLLLARRTDLRRISLDTPDFTDIVLQLEDIRHAIAIDYDPVEGYIYWTDDEVRAIRRSFIDGSGSQFVVTAQIAHPDGIAVDWVARNLYWTDTGTDRIEVTRLNGTMRKILISEDLEEPRAIVLDPMVGYMYWTDWGEIPKIERAALDGSDRVVLVNTSLGWPNGLALDYDEGKIYWGDAKTDKIEVMNTDGTGRRVLVEDKIPHIFGFTLLGDYVYWTDWQRRSIERVHKRSAEREVIIDQLPDLMGLKATNVHRVIGSNPCAEENGGCSHLCLYRPQGLRCACPIGFELISDMKTCIVPEAFLLFSRRADIRRISLETNNNNVAIPLTGVKEASALDFDVTDNRIYWTDISLKTISRAFMNGSALEHVVEFGLDYPEGMAVDWLGKNLYWADTGTNRIEVSKLDGQHRQVLVWKDLDSPRALALDPAEGFMYWTEWGGKPKIDRAAMDGSERTTLVPNVGRANGLTIDYAKRRLYWTDLDTNLIESSNMLGLNREVIADDLPHPFGLTQYQDYIYWTDWSRRSIERANKTSGQNRTIIQGHLDYVMDILVFHSSRQSGWNECASSNGHCSHLCLAVPVGGFVCGCPAHYSLNADNRTCSAPTTFLLFSQKSAINRMVIDEQQSPDIILPIHSLRNVRAIDYDPLDKQLYWIDSRQNMIRKAQEDGSQGFTVVVSSVPSQNLEIQPYDLSIDIYSRYIYWTCEATNVINVTRLDGRSVGVVLKGEQDRPRAVVVNPEKGYMYFTNLQERSPKIERAALDGTEREVLFFSGLSKPIALALDSRLGKLFWADSDLRRIESSDLSGANRIVLEDSNILQPVGLTVFENWLYWIDKQQQMIEKIDMTGREGRTKVQARIAQLSDIHAVKELNLQEYRQHPCAQDNGGCSHICLVKGDGTTRCSCPMHLVLLQDELSCGEPPTCSPQQFTCFTGEIDCIPVAWRCDGFTECEDHSDELNCPVCSESQFQCASGQCIDGALRCNGDANCQDKSDEKNCEVLCLIDQFRCANGQCIGKHKKCDHNVDCSDKSDELDCYPTEEPAPQATNTVGSVIGVIVTIFVSGTVYFICQRMLCPRMKGDGETMTNDYVVHGPASVPLGYVPHPSSLSGSLPGMSRGKSMISSLSIMGGSSGPPYDRAHVTGASSSSSSSTKGTYFPAILNPPPSPATERSHYTMEFGYSSNSPSTHRSYSYRPYSYRHFAPPTTPCSTDVCDSDYAPSRRMTSVATAKGYTSDLNYDSEPVPPPPTPRSQYLSAEENYESCPPSPYTERSYSHHLYPPPPSPCTDSS
# partner: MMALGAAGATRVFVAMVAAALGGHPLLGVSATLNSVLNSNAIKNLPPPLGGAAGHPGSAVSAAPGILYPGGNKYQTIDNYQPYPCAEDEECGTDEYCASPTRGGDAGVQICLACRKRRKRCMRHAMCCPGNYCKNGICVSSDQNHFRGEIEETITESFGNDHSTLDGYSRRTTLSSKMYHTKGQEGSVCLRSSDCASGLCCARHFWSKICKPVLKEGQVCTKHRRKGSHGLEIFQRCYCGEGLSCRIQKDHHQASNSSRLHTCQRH
# B2: Sclerostin (Homo sapiens), Q9BQB4 (parent)
# chain: MQLPLALCLVCLLVHTAFRVVEGQGWQAFKNDATEIIPELGEYPEPPPELENNKTMNRAENGGRPPHHPFETKDVSEYSCRELHFTRYVTDGPCRSAKPVTELVCSGQCGPARLLPNAIGRGKWWRPSGPDFRCIPDRYRAQRVQLLCPGGEAPRARKVRLVASCKCKRLTRFHNQSELKDFGTEAARPQKGRKPRPRARSAKANQAELENAY
# B3: Dickkopf-related protein 1 (Homo sapiens), O94907 (parent)
# chain: B1 partner
# B4: Low-density lipoprotein receptor-related protein 6 (Homo sapiens), O75581 (parent)
# chain: B1 chain
# Variants of: B1
# Conditions: with dkk1_human DKK1, O94907
row,effect of a mutation on the interaction,Variant
1,disrupting interaction,D98Y
2,disrupting interaction,N185S
3,disrupting interaction,A229T
4,disrupting interaction,R141M
5,disrupting interaction,A201V

# Variants of: B2
# Conditions: with lrp6_human LRP6, O75581
row,effect of a mutation on the interaction,Variant
1,decreasing interaction,N117A
2,decreasing interaction,I119E

# Variants of: B3
# Conditions: with lrp6_human LRP6, O75581
row,effect of a mutation on the interaction,Variant
1,disrupting interaction,MMALGAAGATRVFVAMVAAALGGHPLLGVSATLNSVLNSNAIKNLPPPLGGAAGHPGSAVSAAPGILYPGGNKYQTIDNYQPYPCAEDEECGTDEYCASPTRGGDAGVQICLACRKRRKRCMRHAMCCPGNYCKNGICVSSDQNHFRGEIEETITESFGNDHSTLDGYSRRTTLSSKMYHTKGQEGSVCLRSSDCASGLCCARHFWSKICEPVLKEGQVCTKHRRKGSHGLEIFQRCYCGEGLSCRIQKDHHQASNSSRLHTCQRH [K211E]
2,disrupting interaction,MMALGAAGATRVFVAMVAAALGGHPLLGVSATLNSVLNSNAIKNLPPPLGGAAGHPGSAVSAAPGILYPGGNKYQTIDNYQPYPCAEDEECGTDEYCASPTRGGDAGVQICLACRKRRKRCMRHAMCCPGNYCKNGICVSSDQNHFRGEIEETITESFGNDHSTLDGYSRRTTLSSKMYHTKGQEGSVCLRSSDCASGLCCAREFWSKICKPVLKEGQVCTKHRRKGSHGLEIFQRCYCGEGLSCRIQKDHHQASNSSRLHTCQRH [H204E]

# Variants of: B3
# Conditions: with lrp6_human LRP6, O75581
# Remark: another data set of the same source
row,effect of a mutation on the interaction,Variant
1,decreasing interaction,MMALGAAGATRVFVAMVAAALGGHPLLGVSATLNSVLNSAAIKNLPPPLGGAAGHPGSAVSAAPGILYPGGNKYQTIDNYQPYPCAEDEECGTDEYCASPTRGGDAGVQICLACRKRRKRCMRHAMCCPGNYCKNGICVSSDQNHFRGEIEETITESFGNDHSTLDGYSRRTTLSSKMYHTKGQEGSVCLRSSDCASGLCCARHFWSKICKPVLKEGQVCTKHRRKGSHGLEIFQRCYCGEGLSCRIQKDHHQASNSSRLHTCQRH [N40A]
2,disrupting interaction,MMALGAAGATRVFVAMVAAALGGHPLLGVSATLNSVLNSNAEKNLPPPLGGAAGHPGSAVSAAPGILYPGGNKYQTIDNYQPYPCAEDEECGTDEYCASPTRGGDAGVQICLACRKRRKRCMRHAMCCPGNYCKNGICVSSDQNHFRGEIEETITESFGNDHSTLDGYSRRTTLSSKMYHTKGQEGSVCLRSSDCASGLCCARHFWSKICKPVLKEGQVCTKHRRKGSHGLEIFQRCYCGEGLSCRIQKDHHQASNSSRLHTCQRH [I42E]

# Variants of: B4
# Conditions: with sost_human SOST
row,effect of a mutation on the interaction,Variant
1,disrupting interaction,R141M
2,disrupting interaction,N185S
3,disrupting interaction,A229T
4,disrupting interaction,D98Y
5,disrupting interaction,A201V

# — IntAct's records for PubMed 21944579
